Results from the MegaScale stability set (Tsuboyama et al. 2023).

B1: HEEH_KT_rd6_3632 (parent)
chain: DAEELIELVERALKEGREIILLGVRITSEEAGKWFIEWIRRFL

Variants of: B1
Assay: folding stability dG (cDNA display proteolysis); higher = more stable
Conditions: PBS, room temperature

Row | Variant | folding stability dG [kcal/mol]
1 | DAEELIELVERALKEGREIILLGVRITSEEAGKWFFEWIRRFL [I36F] | 3.44
2 | DAEELIELVERALKEGREIILLGVRITSEEAGKWFGEWIRRFL [I36G] | 2.92
3 | DAEELIELVERALKEGREIILLGVRITSEEGGKWFIEWIRRFL [A31G] | 3.71
4 | DAEELIELVERALKEGREIILLGVRITSEEYGKWFIEWIRRFL [A31Y] | 3.62
5 | DAEELIELVERALKEGREIILLGVRITSEETGKWFIEWIRRFL [A31T] | 3.86
6 | DAEELIELVERALKEGREIILLGVRITSEEPGKWFIEWIRRFL [A31P] | 3.15
7 | DAEELIELVERALKEGREIILLGVRITSEERGKWFIEWIRRFL [A31R] | 3.61
8 | DAEELIELVERALKEGREIILLGVRITSEEMGKWFIEWIRRFL [A31M] | 4.08
9 | DAEELIELVERALKEGREIILLGVRITSEEIGKWFIEWIRRFL [A31I] | 4.34
10 | DAEELIELVERALKEGREIILLGVRITSEEVGKWFIEWIRRFL [A31V] | 4.27
11 | DAEELIELVERALKEGREIILLGVRITSEEQGKWFIEWIRRFL [A31Q] | 3.99
12 | DAEELIELVERALKEGREIILLGVRITSEESGKWFIEWIRRFL [A31S] | 3.65
13 | DAEELIELVERALKEGREIILLGVRITSEEKGKWFIEWIRRFL [A31K] | 3.6
14 | DAEELIELVERALKEGREIILLGVRITSEENGKWFIEWIRRFL [A31N] | 3.49
15 | DAEELIELVERALKEGREIILLGVRITSEEHGKWFIEWIRRFL [A31H] | 3.68
16 | DAEELIELVERALKEGREIILLGVRITSEEEGKWFIEWIRRFL [A31E] | 4.2
17 | DAEELIELVERALKEGREIILLGVRITSEEDGKWFIEWIRRFL [A31D] | 3.88
18 | DAEELIELVERALKEGREIILLGVRITSEEWGKWFIEWIRRFL [A31W] | 4.01
19 | DAEELIELVERALKEGREIILLGVRITSEEFGKWFIEWIRRFL [A31F] | 3.83
20 | DAEELIELVERALKEGREIILLGVRITSEELGKWFIEWIRRFL [A31L] | 4.06

Row | Variant | folding stability dG [kcal/mol]
21 | DAEELIELVERALKEGREIILLGVRITSEEAIKWFIEWIRRFL [G32I] | 4.12
22 | DAEELIELVERALKEGREIILLGVRITSEEASKWFIEWIRRFL [G32S] | 3.39
23 | DAEELIELVERALKEGREIILLGVRITSEEAPKWFIEWIRRFL [G32P] | 3.39
24 | DAEELIELVERALKEGREIILLGVRITSEEADKWFIEWIRRFL [G32D] | 3.14
25 | DAEELIELVERALKEGREIILLGVRITSEEAMKWFIEWIRRFL [G32M] | 4.07
26 | DAEELIELVERALKEGREIILLGVRITSEEALKWFIEWIRRFL [G32L] | 4.17
27 | DAEELIELVERALKEGREIILLGVRITSEEANKWFIEWIRRFL [G32N] | 3.38
28 | DAEELIELVERALKEGREIILLGVRITSEEAVKWFIEWIRRFL [G32V] | 3.86
29 | DAEELIELVERALKEGREIILLGVRITSEEAFKWFIEWIRRFL [G32F] | 4.17
30 | DAEELIELVERALKEGREIILLGVRITSEEAHKWFIEWIRRFL [G32H] | 3.44
31 | DAEELIELVERALKEGREIILLGVRITSEEARKWFIEWIRRFL [G32R] | 3.72
32 | DAEELIELVERALKEGREIILLGVRITSEEATKWFIEWIRRFL [G32T] | 3.64
33 | DAEELIELVERALKEGREIILLGVRITSEEAQKWFIEWIRRFL [G32Q] | 3.43
34 | DAEELIELVERALKEGREIILLGVRITSEEAWKWFIEWIRRFL [G32W] | 4.07
35 | DAEELIELVERALKEGREIILLGVRITSEEAKKWFIEWIRRFL [G32K] | 3.68
36 | DAEELIELVERALKEGREIILLGVRITSEEAYKWFIEWIRRFL [G32Y] | 3.85
37 | DAEELIELVERALKEGREIILLGVRITSEEAEKWFIEWIRRFL [G32E] | 3.22
38 | DAEELIELVERALKEGREIILLGVRITSEEAAKWFIEWIRRFL [G32A] | 4.05
39 | DAEELIELVERALKEGREIILLGVRITSEEAGKQFIEWIRRFL [W34Q] | 3.64
40 | DAEELIELVERALKEGREIILLGVRITSEEAGKVFIEWIRRFL [W34V] | 3.35

Row | Variant | folding stability dG [kcal/mol]
41 | DAEELIELVERALKEGREIILLGVRITSEEAGKGFIEWIRRFL [W34G] | 3.11
42 | DAEELIELVERALKEGREIILLGVRITSEEAGKMFIEWIRRFL [W34M] | 3.61
43 | DAEELIELVERALKEGREIILLGVRITSEEAGKIFIEWIRRFL [W34I] | 3.6
44 | DAEELIELVERALKEGREIILLGVRITSEEAGKTFIEWIRRFL [W34T] | 3.45
45 | DAEELIELVERALKEGREIILLGVRITSEEAGKLFIEWIRRFL [W34L] | 3.72
46 | DAEELIELVERALKEGREIILLGVRITSEEAGKKFIEWIRRFL [W34K] | 3.81
47 | DAEELIELVERALKEGREIILLGVRITSEEAGKRFIEWIRRFL [W34R] | 3.98
48 | DAEELIELVERALKEGREIILLGVRITSEEAGKPFIEWIRRFL [W34P] | 2.66
49 | DAEELIELVERALKEGREIILLGVRITSEEAGKCFIEWIRRFL [W34C] | 3.78
50 | DAEELIELVERALKEGREIILLGVRITSEEAGKYFIEWIRRFL [W34Y] | 3.43
51 | DAEELIELVERALKEGREIILLGVRITSEEAGKHFIEWIRRFL [W34H] | 3.54
52 | DAEELIELVERALKEGREIILLGVRITSEEAGKSFIEWIRRFL [W34S] | 3.43
53 | DAEELIELVERALKEGREIILLGVRITSEEAGKEFIEWIRRFL [W34E] | 3.41
54 | DAEELIELVERALKEGREIILLGVRITSEEAGKFFIEWIRRFL [W34F] | 3.42
55 | DAEELIELVERALKEGREIILLGVRITSEEAGKAFIEWIRRFL [W34A] | 4.01
56 | DAEELIELVERALKEGREIILLGVRITSEEAGKNFIEWIRRFL [W34N] | 3.48
57 | DAEELIELVERALKEGREIILLGVRITSEEAGKDFIEWIRRFL [W34D] | 3.39
58 | DAEELIELVERALKEGREIILLGVRITSWEAGKWFIEWIRRFL [E29W] | 4.1
59 | DAEELIELVERALKEGREIILLGVRITSYEAGKWFIEWIRRFL [E29Y] | 3.96
